Columns and labels:
[1] = target: HA-PKBα (haemagglutinin epitope-tagged human PKBα expressed in 293 cells) (human) (UniProt P31749); experiment: cell-based or functional assay
[2] = target: GST-PKBα (full length human protein kinase Bα with N-terminal glutathione S-transferase, from unstimulated 293 cells) (human) [GST: P08515]; experiment: cell-based or functional assay
Chain of GST-PKBα (full length human protein kinase Bα with N-terminal glutathione S-transferase, from unstimulated 293 cells) (human) [GST: P08515] (P08515 1-218, tags or fused parts left off): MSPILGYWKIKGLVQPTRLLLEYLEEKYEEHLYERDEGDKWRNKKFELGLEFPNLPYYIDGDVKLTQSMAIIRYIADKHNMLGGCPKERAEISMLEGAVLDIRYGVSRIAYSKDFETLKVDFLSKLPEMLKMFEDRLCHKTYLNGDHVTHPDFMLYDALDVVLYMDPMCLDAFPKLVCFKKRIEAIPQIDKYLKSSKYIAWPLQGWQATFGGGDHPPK

Chain of HA-PKBα (haemagglutinin epitope-tagged human PKBα expressed in 293 cells) (human) (P31749 whole entry): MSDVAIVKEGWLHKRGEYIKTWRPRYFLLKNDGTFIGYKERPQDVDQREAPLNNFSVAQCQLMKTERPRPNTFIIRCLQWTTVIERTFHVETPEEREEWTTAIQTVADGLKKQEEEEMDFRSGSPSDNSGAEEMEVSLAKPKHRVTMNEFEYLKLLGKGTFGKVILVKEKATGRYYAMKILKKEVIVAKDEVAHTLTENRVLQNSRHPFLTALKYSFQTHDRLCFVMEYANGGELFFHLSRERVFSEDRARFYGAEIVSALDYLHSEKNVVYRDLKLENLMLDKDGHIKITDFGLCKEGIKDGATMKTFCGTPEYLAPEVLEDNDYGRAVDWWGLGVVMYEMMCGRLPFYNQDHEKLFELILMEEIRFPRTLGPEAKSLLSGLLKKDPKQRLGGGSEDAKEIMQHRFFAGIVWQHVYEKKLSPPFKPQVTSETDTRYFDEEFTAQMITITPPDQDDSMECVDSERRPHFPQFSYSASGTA

Thr308 phosphorylation of HA-PKBα in unstimulated cotransfected 293 cells, relative to IGF1-stimulated cells with HA-PKBα alone [1] [%]	activity of HA-PKBα immunoprecipitated from cotransfected 293 cells after IGF-1 [1] [fold]	activity of HA-PKBα immunoprecipitated from cotransfected, unstimulated 293 cells [1] [fold]	further increase of Thr308 phosphorylation of HA-PKBα in cotransfected cells in response to IGF1 [1] [fold]	fold activation with sn-1,2-dipalmitoyl D-PtdIns(3,4,5)P3 [2] [fold]	fold activation with sn-1-stearoyl, 2-arachidonyl D-PtdIns(3,4,5)P3 (lipid 1) [2] [fold]	fold activation with sn-2-arachidonyl, 3-stearoyl D-PtdIns(3,4,5)P3 [2] [fold]	fold activation with sn-2-arachidonyl, 3-stearoyl L-PtdIns(3,4,5)P3 [2] [fold]	fold activation with the L-enantiomer of sn-1-stearoyl, 2-arachidonyl PtdIns(3,4,5)P3 [2] [fold]	Substance
70	70	20	4	–	–	–	–	–	Myc-PDK1 (N-terminal Myc epitope-tagged human PDK1, residues 52-556, expressed in 293 cells) (from UniProt O15530 52-556) (enzyme)
–	–	–	–	5.5	13	16	2.3	1.7	PtdIns(3,4,5)P3-dependent protein kinase-1 (PDK1) purified from rabbit skeletal muscle (enzyme)
